First the molecules themselves.
B1: omega-1 (ω1) glycoprotein carrying Man3Gn2 (natural protein)
chain: QNRWDYYVFSVTWPPTYCESIQCRLPRGLRDFTIHGLWPTIFPNRQPNCTGSLRFDIRRLQGIRNELDLMWPHLKNYRESPSFWKHEFEKHGLCAVEDPQVFNQYGYFKFGIKLMQKLNLLKTLMKYKISPHDSRQYDTINLMNVLEREFGYNGSANCIRKPGRRGMYHLEEVHVCLNRKHEFMNCPFLGNCPKKFIFPPFQ
modifications: N-glycans Man3Gn2 (oligomannose-3, paucimannosidic); sites not stated
B2: omega-1 (ω1) glycoprotein carrying X1Man3Gn2F1[3] (natural protein)
chain: QNRWDYYVFSVTWPPTYCESIQCRLPRGLRDFTIHGLWPTIFPNRQPNCTGSLRFDIRRLQGIRNELDLMWPHLKNYRESPSFWKHEFEKHGLCAVEDPQVFNQYGYFKFGIKLMQKLNLLKTLMKYKISPHDSRQYDTINLMNVLEREFGYNGSANCIRKPGRRGMYHLEEVHVCLNRKHEFMNCPFLGNCPKKFIFPPFQ
modifications: N-glycans X1Man3Gn2F1[3] (oligomannose-3 with β1,2-xylose on mannose 3 and α1,3 core fucose); sites not stated
B3: omega-1 (ω1) glycoprotein carrying Man3Gn2F1[3] (natural protein)
chain: QNRWDYYVFSVTWPPTYCESIQCRLPRGLRDFTIHGLWPTIFPNRQPNCTGSLRFDIRRLQGIRNELDLMWPHLKNYRESPSFWKHEFEKHGLCAVEDPQVFNQYGYFKFGIKLMQKLNLLKTLMKYKISPHDSRQYDTINLMNVLEREFGYNGSANCIRKPGRRGMYHLEEVHVCLNRKHEFMNCPFLGNCPKKFIFPPFQ
modifications: N-glycans Man3Gn2F1[3] (α1,3 core-fucosylated oligomannose-3); sites not stated
B4: omega-1 (ω1) glycoprotein carrying Man3Gn2F1[6] (natural protein)
chain: QNRWDYYVFSVTWPPTYCESIQCRLPRGLRDFTIHGLWPTIFPNRQPNCTGSLRFDIRRLQGIRNELDLMWPHLKNYRESPSFWKHEFEKHGLCAVEDPQVFNQYGYFKFGIKLMQKLNLLKTLMKYKISPHDSRQYDTINLMNVLEREFGYNGSANCIRKPGRRGMYHLEEVHVCLNRKHEFMNCPFLGNCPKKFIFPPFQ
modifications: N-glycans Man3Gn2F1[6] (α1,6 core-fucosylated oligomannose-3); sites not stated

Broadly, the Kd is the constant that tells how readily two partners part at equilibrium. What is called koff is the first-order rate constant of dissociation. A lower koff goes with slow dissociation. The term kon denotes the rate constant with which the complex forms.

For this test, the target named is T1, FimH lectin domain (residues Phe1-Thr158) (Escherichia coli, UniProt P08191 22-179).
T1 construct: FimH type-1 fimbrial adhesin of Escherichia coli, lectin domain, residues Phe1-Thr158; No tag is mentioned; also called FimH adhesin; source: E. coli C43(DE3), pET24a vector, purified (sulfopropyl fast flow cation exchange chromatography)
T1 sequence (P08191 22-179): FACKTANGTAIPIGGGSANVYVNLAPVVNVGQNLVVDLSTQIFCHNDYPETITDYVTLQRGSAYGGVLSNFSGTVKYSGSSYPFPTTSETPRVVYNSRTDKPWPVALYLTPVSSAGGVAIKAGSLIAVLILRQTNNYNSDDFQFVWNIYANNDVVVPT
As to the kind of experiment: SPR; single-cycle kinetics on BIAcore T200; ω1-glycoprotein immobilised on a CM5 chip via primary amino groups (EDC/NHS); FimH as analyte at 14.4, 7.17, 3.60, 1.80, 0.9 μM; 20 mM Hepes, 150 mM NaCl, 0.005% Tween; 30 μl/min; 298 K; fit to the Langmuir 1:1 model. The note with it: both partners purified. In general terms: In SPR one partner is held on a chip, and binding of the other changes the refractive index at the surface.
Regarding B1, the equilibrium dissociation constant (Kd) was 33.6 nM, the koff worked out at 0.00013 s⁻¹ and the kon amounted to 3890 M⁻¹ s⁻¹.

In turn, B2 gave a Kd of 6000 nM, a koff of 0.0015 s⁻¹ and a kon of 257 M⁻¹ s⁻¹.

Molecule B3 returned a Kd of 128 nM, a koff of 6.72e-05 s⁻¹ and an association rate constant (kon) of 525 M⁻¹ s⁻¹.

Molecule B4 gave a Kd of 134 nM, an off-rate (koff) of 8.89e-05 s⁻¹ and a kon of 663 M⁻¹ s⁻¹.

(Values after paper PMC10127133, “Structural insights into a cooperative switch between one and two FimH bacterial adhesins binding pauci- and high-mannose type N-glycan receptors” (The Journal of Biological Chemistry, 2023).)
